Data on nine molecules can be found in patent publication US12522842B2, “Glutamine synthetase mutant having glufosinate resistance and application thereof and cultivation method therefor” (GEVOTO LLC, priority 2019, dated 2026).

In this data set the test system is glutamine synthetase-deficient Escherichia coli. The data set can be described thus: Growth of glutamine synthetase-deficient E. coli transformed with GS mutants in M9 medium containing glufosinate. In kind it is cell-based. The settings on record: for growth of transformed GS-deficient E. coli (normal GS enzymatic activity): medium containing 0 mM glufosinate. The text has this:
According to the sequences of the nucleic acid molecules provided in Example 4, the nucleic acid sequences encoding rice GS mutants OsA, OsC, OsD, OsE, OsF, OsG, OsH, OsI, OsK, OsP, OST, OsV, and OsY were synthesized using chemical synthesis method. Restriction digestion sites (Pac1 and Sbf1) were introduced at both ends thereof, and after restriction digestion, they were linked under the action of ligase to an expression vector (such as pADV7 vector, whose structure is shown in FIG. 4) that was subjected to the same restriction digestion treatment. Then, glutamine synthetase-deficient Escherichia coli was transformed with the resultant. After verification, positive clones were picked up and inoculated in M9 medium containing different concentrations of glufosinate to grow, and the growth status of defective Escherichia coli was observed.
With wild-type rice GS (its amino acid sequence shown in SEQ ID NO. 1 and its encoding gene shown in SEQ ID NO. 4) as a negative control, the glufosinate resistance for the GS mutant OsA (S59A, wherein the amino acid S at site 59 of the rice GS is mutated into A), OsC (S59C), OsD (S59D), OsE (S59E), OsF (S59F), OsG (S59G), OsH (S59H), OsI (S591), OsK (S59K), OsP (S59P), OsT (S59T), OsV (S59V), OsY (S59Y) was detected.
With reference to the detection method of Experimental Example 1, glufosinate resistance of the rice GS mutant OsGR (S59G and H296R, the amino acid S at site 59 of rice GS is mutated into G and the amino acid H at site 296 is mutated into R), the wheat GS mutant TaGR (S59G and H296R, the amino acid S at site 59 of wheat GS is mutated into G and the amino acid H at site 296 is mutated into R), the soybean GS mutant GmGR (S59G and H296R, the amino acid S at site 59 of soybean GS is mutated into G and the amino acid H at site 296 is mutated into R) provided in Example 2 was verified.
With reference to Experimental example 1, the glufosinate resistance of rice GS mutants OA, OD, OE, OG, OI, OK, OM, OP, OQ, OR, OS, OT, and OV provided in Example 3 was detected according to the following method.
With wild-type rice GS as a negative control, the glufosinate resistance of GS mutants OA (H296A, amino acid H at site 296 of rice GS is mutated into A), OD (H296D), OE (H296E), OG (H296G), OI (H2961), OK (H296K), OM (H296M), OP (H296P), OQ (H296Q), OR (H296R), OS (H296S), OT (H296T), OV (H296V) was detected.

The mark [1] stands for this setting: medium containing 10 mM glufosinate.
[2] abbreviates: medium with 50 mM/100 mM glufosinate.

B1: OsK (protein)
chain: MASLTDLVNLNLSDTTEKIIAEYIWIGGSGMDLRSKARTLSGPVTDPSKLPKWNYDGSKTGQAPGEDSEVILYPQAIFKDPFRKGNNILVMCDCYTPAGEPIPTNKRHNAAKIFSSPEVASEEPWYGIEQEYTLLQKDINWPLGWPVGGFPGPQGPYYCGIGADKSFGRDIVDSHYKACLYAGINISGINGEVMPGQWEFQVGPSVGISAGDQVWVARYILERITEIAGVVVSFDPKPIPGDWNGAGAHTNYSTKSMRNDGGYEIIKSAIEKLKLRHKEHISAYGEGNERRLTGRHETADINTFSWGVANRGASVRVGRETEQNGKGYFEDRRPASNMDPYIVTSMIAETTIIWKP
modifications: OsK
Turning to B1, the “growth of transformed GS-deficient E. coli (normal GS enzymatic activity)” value (shortened to “growth … (normal GS enzymatic activity)”) is recorded as “could normally grow”. The “growth of transformed E. coli (glufosinate resistance)” value (shortened to “growth of transformed E. coli”) under setting [1] is recorded as “significantly superior to that of the negative control”. Also, the “growth of transformed E. coli” value under setting [2] is listed as “significantly grew”.

B2: OsC (protein)
chain: MASLTDLVNLNLSDTTEKIIAEYIWIGGSGMDLRSKARTLSGPVTDPSKLPKWNYDGSCTGQAPGEDSEVILYPQAIFKDPFRKGNNILVMCDCYTPAGEPIPTNKRHNAAKIFSSPEVASEEPWYGIEQEYTLLQKDINWPLGWPVGGFPGPQGPYYCGIGADKSFGRDIVDSHYKACLYAGINISGINGEVMPGQWEFQVGPSVGISAGDQVWVARYILERITEIAGVVVSFDPKPIPGDWNGAGAHTNYSTKSMRNDGGYEIIKSAIEKLKLRHKEHISAYGEGNERRLTGRHETADINTFSWGVANRGASVRVGRETEQNGKGYFEDRRPASNMDPYIVTSMIAETTIIWKP
modifications: OsC
Consider B2, for which the “growth … (normal GS enzymatic activity)” value is listed as “could normally grow”. Under setting [1], the “growth of transformed E. coli” value is given as “significantly superior to that of the negative control”. In addition, the “growth of transformed E. coli” value under setting [2] is listed as “significantly grew”.

B3: OsV (protein)
chain: MASLTDLVNLNLSDTTEKIIAEYIWIGGSGMDLRSKARTLSGPVTDPSKLPKWNYDGSVTGQAPGEDSEVILYPQAIFKDPFRKGNNILVMCDCYTPAGEPIPTNKRHNAAKIFSSPEVASEEPWYGIEQEYTLLQKDINWPLGWPVGGFPGPQGPYYCGIGADKSFGRDIVDSHYKACLYAGINISGINGEVMPGQWEFQVGPSVGISAGDQVWVARYILERITEIAGVVVSFDPKPIPGDWNGAGAHTNYSTKSMRNDGGYEIIKSAIEKLKLRHKEHISAYGEGNERRLTGRHETADINTFSWGVANRGASVRVGRETEQNGKGYFEDRRPASNMDPYIVTSMIAETTIIWKP
modifications: OsV
Take B3: the “growth … (normal GS enzymatic activity)” value is “could normally grow”. For the same molecule, the “growth of transformed E. coli” value under setting [1] was “significantly superior to that of the negative control”.

B4: OsD (protein)
chain: MASLTDLVNLNLSDTTEKIIAEYIWIGGSGMDLRSKARTLSGPVTDPSKLPKWNYDGSDTGQAPGEDSEVILYPQAIFKDPFRKGNNILVMCDCYTPAGEPIPTNKRHNAAKIFSSPEVASEEPWYGIEQEYTLLQKDINWPLGWPVGGFPGPQGPYYCGIGADKSFGRDIVDSHYKACLYAGINISGINGEVMPGQWEFQVGPSVGISAGDQVWVARYILERITEIAGVVVSFDPKPIPGDWNGAGAHTNYSTKSMRNDGGYEIIKSAIEKLKLRHKEHISAYGEGNERRLTGRHETADINTFSWGVANRGASVRVGRETEQNGKGYFEDRRPASNMDPYIVTSMIAETTIIWKP
modifications: OsD
As to B4, the “growth … (normal GS enzymatic activity)” value is “could normally grow”. The “growth of transformed E. coli” value under setting [1] was “significantly superior to that of the negative control”. Under setting [2], the “growth of transformed E. coli” value was “significantly grew”.

B5: OsP (protein)
chain: MASLTDLVNLNLSDTTEKIIAEYIWIGGSGMDLRSKARTLSGPVTDPSKLPKWNYDGSPTGQAPGEDSEVILYPQAIFKDPFRKGNNILVMCDCYTPAGEPIPTNKRHNAAKIFSSPEVASEEPWYGIEQEYTLLQKDINWPLGWPVGGFPGPQGPYYCGIGADKSFGRDIVDSHYKACLYAGINISGINGEVMPGQWEFQVGPSVGISAGDQVWVARYILERITEIAGVVVSFDPKPIPGDWNGAGAHTNYSTKSMRNDGGYEIIKSAIEKLKLRHKEHISAYGEGNERRLTGRHETADINTFSWGVANRGASVRVGRETEQNGKGYFEDRRPASNMDPYIVTSMIAETTIIWKP
modifications: OsP
As for B5, the “growth … (normal GS enzymatic activity)” value is given as “could normally grow”. Besides, the “growth of transformed E. coli” value under setting [1] is recorded as “significantly superior to that of the negative control”. The “growth of transformed E. coli” value under setting [2] was “significantly grew”.

B6: OsE (protein)
chain: MASLTDLVNLNLSDTTEKIIAEYIWIGGSGMDLRSKARTLSGPVTDPSKLPKWNYDGSETGQAPGEDSEVILYPQAIFKDPFRKGNNILVMCDCYTPAGEPIPTNKRHNAAKIFSSPEVASEEPWYGIEQEYTLLQKDINWPLGWPVGGFPGPQGPYYCGIGADKSFGRDIVDSHYKACLYAGINISGINGEVMPGQWEFQVGPSVGISAGDQVWVARYILERITEIAGVVVSFDPKPIPGDWNGAGAHTNYSTKSMRNDGGYEIIKSAIEKLKLRHKEHISAYGEGNERRLTGRHETADINTFSWGVANRGASVRVGRETEQNGKGYFEDRRPASNMDPYIVTSMIAETTIIWKP
modifications: OsE
Take B6: the “growth … (normal GS enzymatic activity)” value is “could normally grow”. Further, the “growth of transformed E. coli” value under setting [1] is “significantly superior to that of the negative control”.

B7: OsF (protein)
chain: MASLTDLVNLNLSDTTEKIIAEYIWIGGSGMDLRSKARTLSGPVTDPSKLPKWNYDGSFTGQAPGEDSEVILYPQAIFKDPFRKGNNILVMCDCYTPAGEPIPTNKRHNAAKIFSSPEVASEEPWYGIEQEYTLLQKDINWPLGWPVGGFPGPQGPYYCGIGADKSFGRDIVDSHYKACLYAGINISGINGEVMPGQWEFQVGPSVGISAGDQVWVARYILERITEIAGVVVSFDPKPIPGDWNGAGAHTNYSTKSMRNDGGYEIIKSAIEKLKLRHKEHISAYGEGNERRLTGRHETADINTFSWGVANRGASVRVGRETEQNGKGYFEDRRPASNMDPYIVTSMIAETTIIWKP
modifications: OsF
For B7, the “growth … (normal GS enzymatic activity)” value is given as “could normally grow”. In addition, the “growth of transformed E. coli” value under setting [1] is given as “significantly superior to that of the negative control”. Further, the “growth of transformed E. coli” value under setting [2] was “significantly grew”.

B8: OsA (protein)
chain: MASLTDLVNLNLSDTTEKIIAEYIWIGGSGMDLRSKARTLSGPVTDPSKLPKWNYDGSATGQAPGEDSEVILYPQAIFKDPFRKGNNILVMCDCYTPAGEPIPTNKRHNAAKIFSSPEVASEEPWYGIEQEYTLLQKDINWPLGWPVGGFPGPQGPYYCGIGADKSFGRDIVDSHYKACLYAGINISGINGEVMPGQWEFQVGPSVGISAGDQVWVARYILERITEIAGVVVSFDPKPIPGDWNGAGAHTNYSTKSMRNDGGYEIIKSAIEKLKLRHKEHISAYGEGNERRLTGRHETADINTFSWGVANRGASVRVGRETEQNGKGYFEDRRPASNMDPYIVTSMIAETTIIWKP
modifications: OsA
Take B8: the “growth … (normal GS enzymatic activity)” value was “could normally grow”. Further, under setting [1], the “growth of transformed E. coli” value is “significantly superior to that of the negative control”.

B9: OsG (protein)
chain: MASLTDLVNLNLSDTTEKIIAEYIWIGGSGMDLRSKARTLSGPVTDPSKLPKWNYDGSGTGQAPGEDSEVILYPQAIFKDPFRKGNNILVMCDCYTPAGEPIPTNKRHNAAKIFSSPEVASEEPWYGIEQEYTLLQKDINWPLGWPVGGFPGPQGPYYCGIGADKSFGRDIVDSHYKACLYAGINISGINGEVMPGQWEFQVGPSVGISAGDQVWVARYILERITEIAGVVVSFDPKPIPGDWNGAGAHTNYSTKSMRNDGGYEIIKSAIEKLKLRHKEHISAYGEGNERRLTGRHETADINTFSWGVANRGASVRVGRETEQNGKGYFEDRRPASNMDPYIVTSMIAETTIIWKP
modifications: OsG
With B9, the “growth … (normal GS enzymatic activity)” value is recorded as “could normally grow”. Moreover, under setting [1], the “growth of transformed E. coli” value was “significantly superior to that of the negative control”. The “growth of transformed E. coli” value under setting [2] is “significantly grew”.
